For this experiment, the target named is T1, receptor tyrosine kinase-like orphan receptor 1 (ROR1) expressed on EW36 cells (human, UniProt Q01973 30-937).
T1 construct: whole, on cells; Endogenous ROR1 on viable EW36 human B-cell lymphoma cells; also called RORI
The experiment is described as follows: flow cytometry on EW36 cells, culture supernatant, Alexa-488 goat anti-human IgG. Here is the method: Dual parameter flow cytometry was done in a FACSCalibur instrument (BD Biosciences; Immunocytometry Systems) using an anti-human 1gG that reacted with cell bound scFV of the invention (as shown in SEQ.ID.No: 3), but not the cells used in these experiments.
Propidium iodide was added to stain dead cells, which could then be excluded from the analysis. Following incubation with the culture supernatants, the cells were washed prior to analysis using a FACSCalibu™ (Becton Dickinson, Mountain View, Calif.). The data analyzed with FlowJo™ software (Tree Star, San Carlos, Calif.). A total of 20,000-gated events were collected for each sample in a list mode file, and data analysis was done using CellQuest™ software (BD Biosciences). The relative log florescence of the cells is depicted on the x-axis. Cells staining with the Alexa-488 conjugated goat antibody are shifted to the right. A histogram of control unstained cells or cells stained with the Alexa-488 conjugated goat antibody in the absence of the scFV are provided for comparison.

T1 sequence (Q01973 30-937): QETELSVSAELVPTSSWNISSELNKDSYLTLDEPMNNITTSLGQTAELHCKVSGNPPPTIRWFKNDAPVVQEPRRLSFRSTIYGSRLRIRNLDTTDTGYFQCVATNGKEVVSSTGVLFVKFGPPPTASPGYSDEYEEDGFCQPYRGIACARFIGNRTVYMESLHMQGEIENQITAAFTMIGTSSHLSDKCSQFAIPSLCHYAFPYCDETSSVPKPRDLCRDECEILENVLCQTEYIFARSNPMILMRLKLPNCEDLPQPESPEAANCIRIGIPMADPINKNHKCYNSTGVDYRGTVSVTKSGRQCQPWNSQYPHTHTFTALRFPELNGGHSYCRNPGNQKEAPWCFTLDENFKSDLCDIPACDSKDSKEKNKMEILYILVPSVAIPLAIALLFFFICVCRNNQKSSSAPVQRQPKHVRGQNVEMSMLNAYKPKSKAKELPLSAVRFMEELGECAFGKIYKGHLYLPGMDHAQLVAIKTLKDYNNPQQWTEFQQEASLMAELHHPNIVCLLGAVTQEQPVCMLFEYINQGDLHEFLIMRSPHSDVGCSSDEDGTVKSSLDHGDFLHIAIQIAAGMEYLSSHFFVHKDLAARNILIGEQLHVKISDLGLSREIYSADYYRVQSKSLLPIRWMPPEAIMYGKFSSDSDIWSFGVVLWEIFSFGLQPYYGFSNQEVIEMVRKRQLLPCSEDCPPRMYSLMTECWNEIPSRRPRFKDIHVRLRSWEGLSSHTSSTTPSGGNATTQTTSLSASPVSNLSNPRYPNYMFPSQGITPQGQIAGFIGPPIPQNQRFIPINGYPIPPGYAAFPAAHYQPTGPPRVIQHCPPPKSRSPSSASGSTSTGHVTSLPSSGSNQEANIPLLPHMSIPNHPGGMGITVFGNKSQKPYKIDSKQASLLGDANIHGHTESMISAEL

B1: pCDNA 3.1 CH2 CH3 stable scFV (anti-ROR1 mAb scFv fused to CH2 CH3) (Fc fusion)
scFv: DIKMTQSPSSMYASLGERVTITCKASPDINSYLSWFQQKPGKSPKTLIYRANRLVDGVPSRFSGGGSGQDYSLTINSLEYEDMGIYYCLQYDEFPYTFGGGTKLEMKGSTSGSGKPGSGEGSTKGEVKLVESGGGLVKPGGSLKLSCAASGFTFSSYAMSWVRQIPEKRLEWVASISRGGTTYYPDSVKGRFTISRDNVRNILYLQMSSLRSEDTAMYYCGRYDYDGYYAMDYWGQGTSVTVSS
notes: Tested as culture supernatants of stably transfected cell clones; All clones carry the same construct, so they are written as one molecule; also called scFV of the invention; not shown: CH2 CH3 domains (detected with anti-human IgG)
For B1, the binding result is recorded as “binds”.
